Laboratory results reported in paper PMC8769934 (Cell Reports, 2022).

B1: N-612-004 Fab (Fab, V domains shown)
VH: EVQLVESGGGLVQPGGSLRLSCAASGFTFSSYYMHWVRQAPGKGLEWVSAISGSGGYTYYADSVKGRFTISRDNSKNTLYLQMNSLRAEDTAVYYCARDRDHAYDWGFDVWGQGTLVTVSS
VL: DIQMTQSPSSLSASVGDRVTITCQASQDISNYLNWYQQKPGKAPKLLIYDASNLETGVPSRFSGSGSGTDFTFTISSLQPEDIATYYCQQWADWPLTFGQGTKVEIK
B2: N-612-004 (IgG1) (antibody, V domains shown)
VH: B1 VH
VL: B1 VL

What was measured:
dissociated S1 protomer = dissociated S1 protomer (SARS-CoV-2, Wuhan-Hu-1, stabilised); assay: cryo-EM structure
[1] = target: recombinant S1 domain containing B.1.1.7 mutations (SARS-CoV-2 B.1.1.7 (Alpha), strain); assay: BLI

Binder	binding result (dissociated S1 protomer)	fold reduction of binding affinity against S1 [1] [fold]
B1	binds	–
B2	–	~3
